The DeepSol protein solubility set

Test: soluble on expression in E. coli; label from the status in PepcDB or PDB records

Row | Sequence | soluble on expression in E. coli
1 | MSEQFVTISQHVRNPQEAAALFGVHDIHLKRIEEELGVSIVTRGETVNVSGTPQQVQLVNELLRHLLIVIRKGAAVSERDVLYAIQLAKKGALDGLVQLYDEEITKNAKGKPIRVKTLGQRYYVAAIEQYDLTFGIGPAGTGKTYLAVVMAVKALKNGSVKRIILTRPAVEAGESLGFLPGDLKEKVDPYLRPLYDALNDVLGAEYTQRLIERGTIEIAPLAYMRGRTLEDAFVILDEAQNTTPAQMKMFLTRLGFGSKMVITGDISQVDLPKGVESGLSVAKRILASIGGIAFVFLEQSDVVRHPLVAKIIDAYDEAGL | not soluble
2 | MSEQKIEVVGKLGSTYGIRGWLRLYSSTEKAESIFDYQPWFLKIKGQWQLIELESWRYHSNDLIVKLKGTEDREAAQLLTNAEIGVDLSVFPKLGEEDYYWHDLINCQVVNLENYTMGVVTELMETGSNDVLVVRANSKDAFGKQERLIPFLYKQVVKRVDLSTKTITVDWDAGFLEHHHHHH | soluble
3 | MSEQYTTGVVVTGKVTGIQDYGAFVALDAETQGLVHISEITNGYVKDIHDFLKVGDTVEVKVLSIDEEHRKMSLSLKAAKRKQGRILIPNPSENGFNTLREKLTEWIEESELTK | not soluble
4 | MSERDAIRAFSHMLETIFVRMRAEGTGSQTDAMQRWLDLYNVGSLPIDKKSYKALRLMDRETTDQQKEDATCAICLDNLQNNVDIPEDHVIKEELKIDPTTFGTTVIVMPCKHRFHYFCLTLWLEAQQTCPTCRQKVKTDKEVEEEERQRNLEELHDSMYG | not soluble
5 | MSERVKVAILGSGNIGTDLMYKLLKNPGHMELVAVVGIDPKSEGLARARALGLEASHEGIAYILERPEIKIVFDATSAKAHVRHAKLLREAGKIAIDLTPAARGPYVVPPVNLKEHLDKDNVNLITCGGQATIPLVYAVHRVAPVLYAEMVSTVASRSAGPGTRQNIDEFTFTTARGLEAIGGAKKGKAIIILNPAEPPILMTNTVRCIPEDEGFDREAVVASVRAMEREVQAYVPGYRLKADPVFERLPTPWGERTVVSMLLEVEGAGDYLPKYAGNLDIMTASARRVGEVFAQHLLGKPVEEVVA | soluble
6 | MSESFAELFEESLKTLNLQAGSIITGVIVDIDYQARWVTVHAGLKSEALIPLEQFYNDAGELSINVGDEVHVALDSVEDGFGETKLSREKAKRAECWIVLEAAFAAEEVVKGVINGKVKGGFTVDVNGIRAFLPGSLVDVRPVRDTTHLEGKELEFKVIKLDQKRNNVVVSRRSVLEAENSAEREALLESLQEGQQVKGIVKNLTDYGAFVDLGGVDGLLHITDMAWKRIKHPSEIVNVGDEIDVKVLKYDRERNRVSLGLKQLGEDPWVAIKARYPESTRVTARVTNLTDYGCFAELEEGVEGLVHVSEMDWTNKNIHPSKVVQVGDEVEVMVLDIDEERRRISLGIKQCKSNPWEDFSGQFNKGDKISGTIKSITDFGIFIGLDGGIDGLVHLSDISWNEVGEEAVRRFKKGDELDTVILSVDPERERISLGIKQLESDPFSEYVQENDKGAIVKGVVKEVDAKGAIITLANDIEATLKASEISRDRIEDARNVLKEGEEVEAKIISVDRKSRVIQLSIKSKDVEDEKEAIQSLRDKPAASDIAAGPTTLGDLLRAQMEKQN | soluble
7 | MSETKERLCIYADFPYEFAVCAPRTDCPKREQCLRASAYDGVLARGLQKITVINPLIPTSEQGCKAFADNTPVLFAHGITHLYDELPHHAVQSLKHRLLTYFGKTTYYRIYRKERYITIQEQDYIRDSFVRAGFSSDLIRYDAMVYMYELQSAMVKSD | not soluble
8 | MSETLIIRFNVGGTPMATLKTTFPVDSIFHKWFVSRTKASPFTSDRDGAYFVDRDPFSFGVVLNYFRLRKAGQLWEACLPKDPDRLAMLTQEADFFLLPQLRDQAICMLQLCSNKNDSNYINEMLAKSTSCPQGFDKKEEEDEEDF | not soluble
9 | MSETQNSTSQKAMDEDNKAASQTMPNTQDKNYEDELTQVALALVEDVINYAVKIVEEERNPLKNIKWMTHGEFTVEKGLKQIDEYFSKCVSKKCWAHGVEFVERKDLIHSFLYIYYVHWSISTADLPVARISAGTYFTMKVSKTKPPDAPIVVSYVGDHQALVHRPGMVRFRENWQKNLTDAKYSFMESFPFLFNRVLEHHHHHH | soluble
10 | MSEVTDLTVIEIKPEQAPVLYVAGGLDAYLEQIRQAVNEVPDLSTKKGRDRVASLAAQVSRSKTAIEKPGREYLKRLKEAVRPAEAEIKRFVDACDELRDATRRPLTEWEAEQERIKAEEAMNALHAEALEMNIKFDQELAAKFEADHEMALLMNKDFDRDREEQRRLAEQARREHEERIKREAAEQARRDAEAKHKAEIEAAARREAEEKARAELAERQRIEAEQRAEREKKETEERARREKEEAVAAERRRQEEAEAARLVEEQRKAEEEARRAADKEHRRTVNRRVYADLIAQGIPEEYAQKAVLAIAGGKVQDAHIKY | not soluble
11 | MSEVVTDRLRMALEAMAQKDDDAAWEVIDGDDEINQLYLDLEDDCIDLLALQQPVAGDLRLIASSFKIITDLERIGDLAANLAEYTLDADRDMFPEVDVQAIGDRTIEMVTDAMAAYASADVEACYAIAERDDDIDERCRSASQTVIRDLIETEIDAATDDAEIEALMQDVSRLLLTVRDLERVGDHAVNISARTVYMVDNDDELIY | soluble
12 | MSFDGFFLHHLTNELQEQIEKGRIQKVNQPFDHELVLTIRNNRRNYKLLLSAHPVFGRIQTTEANFQNPQNPNTFTMIMRKYLQGAVIETIQQIENDRILEIVVSNKNEIGDHIKATLVVEIMGKHSNIILIDKNEHKIIESIKHVGFSQNSYRTILPGSTYIAPPKTKAINPFDISDQTLFELLQTNDLSPKNLQQLLQGLGRDTALELSHCLKDNKLNDFRQFFSREYYPSLTEKSFSAVQFSSSHETFQSLGQLLDYYYQEKAEKDRIAQQASDLIHRVQSELEKNIKKLAKQQDELLATENAEEFRQKGELLTTYLSMVPNNQDVVVLDNYYTNQTIEISLDRALTPNQNAQRYFKKYQKLKEAVKHLKGIISDTENTITYLESVETSLNHASMEDINDIREELVETGFIKRRAHDKQHKRKK | not soluble
13 | MSFDGFFLHHMTAELREQVLYGRIQKVNQPFERELVLTIRNNRQNYKLLLSAHPVFGRIQTTKAELPNPQNPNTYTMIMRKYLQGAVIEDIQQLENDRVLEISVSNKNEIGDSVKVTLVMEIMGKHSNIILIDKNENKIIESIKHVGFSQNSYRTILPGSTYIAPPKTDARNPFDISDENLFELLQTEDLSAKNLQKLFQGLGRDTANELSALLETDKLKNFRDFFNREVEPNLTTKAFSAVRFSDSQDQPEFETLSELLDYYYLDKAARDRVAQQASDLIHRVQNELEKNKKKLVKQEKELAATENAEEFRQKGELLTTFLSMVPNDKDSVELDNYYTGEKITIPLNVALTPNQNAQRYFKKYQKLKEAVKHLTGLIEETKQTINYLESVEFSLSQANMDEIEDIREELVQAGFMRRRSTDKRQKRKK | not soluble
14 | MSFFDKVKGAINSGRDELTRQVGRFKNKKFMQGTVAVCARIAVSSDGVSSEEKQKMMGFLRSSEELKVFDTNEVIEFFNKLVSSFDFDVEIGKGETMKYILALKDQPEAAQLALRVGIAVAKSDGNFDQDEKLASREIAIALGFDPAEFGL | not soluble
15 | MSFKEIKAEDLQFNPFTRIGSDWMLITAGDEKKFNTMTASWGGAGVFWGKNVVTCYIRPQRYTKEFVDANDTFTLSFYGPECKNALNLCGTVSGRDRDKISEAGLTPYFTEGTAAFEEANLIFVCRKIYQDDMPYENFIAKENDAKYYPNKDYHTMYIAEIVKILVAE | not soluble
16 | MSFYSAHQLALALEGLQRALDEIGIYSDILEDALLIACNVPVAEKTSILNDFQRADTINYGGLAAAIRANLAPDVCERRITEFQKKYAHGTDDQRLELLSDESVWRLEAYEAFADAEPLSTLEKIRLGVIGGPIDSIDPNWPLRKIAPERFLNDRWSRAVHDPRRIRRKIIGHRLPYRTKAEPDVPYGIPKRARLAARENSGPVRAPPLLGGAHPGQFRARGPAGVGVVSRHTRQFGAARGVLRGPTGNRVVPLFPVQIRARPPAPSQTIIRVQETERVKLEPTDNSYEEQKPPLLEN | not soluble
17 | MSGELRVRRASSWELDLILKEAEKYGELLHEFFCVVEGKYRDVYAVNEEVWKIIEDINMRPYSLGTFVGTIRVDENLVEKFYPNLEFFSLIKLEKNYVILGPKASFLFTTGKDAPKEAVREIKWQGSKRVVVLNDLGDIIGIGLINPKSDRRFIKNLKDVGEFLRR | soluble
18 | MSGLKLVTVLLLALCTATEAAKCRGKYMEMRGREGFVTRGGCRGLDSQIQEEYWTTVGFDGDLRDGRTTDDFLVFPANENNGHTQTNSFVGYWDMKESVNPITRSKYGENVHYEAFGHAFIKPDGKVCGWFVGSHKEVVEVCGGFRVLSRSRFNPHQPIPFEWVQGEQYRNRDVLGFHHHKIAKYEANADEVLFGDADVKGKKFNGVSINNEQRVEVDTPETFHRKVWLLRKKSTQPPSDVRAAYHHPRKLL | not soluble
19 | MSGRGKVKSEPMKVVFINTQYVETDARSFKTVVQELTGKNAIVAAGPFDSPSAFDGRCYDGGSKIGEDTRQLHGGGGGGGRMGTTTEFDRLFKEMPHMEELYKLWSEY | soluble
20 | MSGVKIAFIRHHDLWIKVDGKEKQLTKGEYITGPKWSYDGEWLAYVKGEKQNTLELYRLKDGKKVTPFHSEVSNYQWSPTENIIAFIFTGTLHTFKVEKKNADFENVSAGVGDYAWYPNGKKFLVSSEAHLLPTGWTGAQLYEVQKDAHMNPHKMKHLYALPNEHDDFLALVASGFQWSPDQKWISFLAVPTASWSADSNTLCLVRADGSRFEKVDQMLLNTQWFKWAPANNILAYIEGSGRVALENKHLKVKELPALQQNTFTPKGYVDWDFTWKNDNVIIVSRAKEAGIETPPEKRPLPSLYEIDSTSDEQHRITKPPHRQGDYHPLFMNKSNQLIWIRSDRKKADVWLAHKDGKHEMKWIENIDVPLEHHHHHH | not soluble
21 | MSGVRFPSGSLKDVRFFLHLFFSSKYGIIYVRYLDEEGTIMKQIIISVGREFGSGGHIVAQKLAEHYDIPIFNKELLEEMARKEGYSEKALEKYDEKPVNFGFMPLPYAGGNIPIEQEIAMKQFEFIKNKADAGESFVIVGRCADEILAYNPNLVSVFITGDRESKIARVMDREGLDRKQAINKMKRMDKIRKTYHNFYCRNKWGDSRGYDICINTGKTDFDTAKNMVVECVDKLKERSE | not soluble
22 | MSGVSTAAYFARRAAQKERVRILYRRALKDTLNWAVHRHIFYRDEDVDRIDKLIAHGEAEYNKWRHPDPYIVPWAPGGSKFCRNPTPPAGIEIVYNYGLEDNP | not soluble
23 | MSHHKLEVKNLSFTYPDGHKAIDGISFTVRHGESVGIVGENGAGKSTLLLVLMGVLFPNQGEVRVGDVRVTKKTLPLIRQRLGMVFQNPDDQLFMTTVYDDVAFGPRNYKLDEKEVEDRVMKSLDMVGISHLKDKAPYKLSGGEKRAAAIATVLSMQPDILVMDEPTSSLDPRSRRRVMELLKNFEHTKIITSHDLDMVLEICERTIVLKQGKVAADGLTSEILADKELMNTCGLEVPLALQGCPVCGEKKKYV | soluble
24 | MSHHRIIIIGAGAAGVGMAITLQEFNIKDVLIVEKGTIGHSFKHWPLSTKTITPSFTTNGFGMPDMNAIAKDTSPAFTFNEEHLSGKRYAEYLSLVATHYNLNVKTNTNVSRVTYIDGIYHVSTYYGVYTADYIFIATGDYSFPYHPFSYGLHYSEIQTFTQLKGDAFTIIGGNESAFDAAINLSQTGARISIYTSKTGLKKEDADPSIRLSPYTQQRLRNAIQEGALIEMHVGYQARKITYQNHSYKIHFDNGHIVHSHTEPIIATGFDVTQNPLIEQLFQVRQSEVQLTELDESTKFPNVFLIGATVRHQNAILCYIYKFRARFAVLARIVSLREGLPEDTSLIQSYRQKNMFLDDYSCCDVNCTCLEHHHHHH | not soluble
